Experimental data reported in FireProtDB (doi:10.1002/pro.398).

B1: Ovalbumin, P01012 (parent)
chain: MGSIGAASMEFCFDVFKELKVHHANENIFYCPIAIMSALAMVYLGAKDSTRTQINKVVRFDKLPGFGDSIEAQCGTSVNVHSSLRDILNQITKPNDVYSFSLASRLYAEERYPILPEYLQCVKELYRGGLEPINFQTAADQARELINSWVESQTNGIIRNVLQPSSVDSQTAMVLVNAIVFKGLWEKAFKDEDTQAMPFRVTEQESKPVQMMYQIGLFRVASMASEKMKILELPFASGTMSMLVLLPDEVSGLEQLESIINFEKLTEWTSSNVMEERKIKVYLPRMKMEEKYNLTSVLMAMGITDVFSSSANLSGISSAESLKISQAVHAAHAEINEAGREVVGSAEAGVDAASVSEEFRADHPFLFCIKHIATNAVLFFGRCVSP

Variants of: B1
Conditions: Gallus gallus, Thermal, CD, structure 1UHG, whole UniProt chain shown

| Variant | Tm (pH 7, Phosphate 10 mM) | change of melting temperature, mutant - wild type (higher = more stable) (pH 7, Phosphate 10 mM) | Tm (pH 10, Glycine-NaOH 0.1 M) | change of melting temperature, mutant - wild type (higher = more stable) (pH 10, Glycine-NaOH 0.1 M) |
| --- | --- | --- | --- | --- |
| S237A | 70.4 °C | 0.6 °C | 79.3 °C | 0.4 °C |
| R143A | 69.8 °C | 0 °C | 75.6 °C | -3.3 °C |
| S165A S321A | 71.3 °C | 1.5 °C | 71.8 °C | -7.1 °C |
| S165A | 70.8 °C | 1 °C | 75.6 °C | -3.3 °C |
| S321A | 69.3 °C | -0.5 °C |  |  |
| R143A S321A | 70 °C | 0.2 °C | 71.2 °C | -7.7 °C |
